From the RNAGym collection of RNA variant scans (doi:10.7554/elife.90254)

B1: LINE1-mini (parent)
chain: GGCAGAGCUCAACACAGCGUGGCAAAGUGGCUGUGGCUAGACUGCC

Variants of: B1
Assay: self-cleavage, relative activity (ratio to wild type); higher = more cleavage; in vitro, sequencing; the parent is a self-cleaving ribozyme
With A16U G27U the self-cleavage was 0.13. With G5U C37G the self-cleavage was 0.07. With G21C U43C the self-cleavage was 0.06. Work on A6G G17C yielded a self-cleavage of 0.09. Work on U34G C45A yielded a self-cleavage of 0.06. Variant G33A U34G has a self-cleavage of 0.04. With G1C G33C the self-cleavage was 0.14. Work on A25C C31U yielded a self-cleavage of 0.12. C8A G44C gave a self-cleavage of 0.23. Variant A6G A39U has a self-cleavage of 0.08. Work on C13G C18G yielded a self-cleavage of 0.07. In the case of G2C A16G, the self-cleavage is reported as 0.09. In the case of A6U G7U, the self-cleavage is reported as 0.14. Variant A26C G40A has a self-cleavage of 0.12. With A25C U43C the self-cleavage was 0.04. In the case of A6U C31G, the self-cleavage is reported as 0.13. C15U C37U gave a self-cleavage of 0.11. For C18A A26C, the self-cleavage was 2.92. In the case of A14C G30C, the self-cleavage is reported as 0.07. In the case of U32C G44A, the self-cleavage is reported as 0.07. In the case of C23G C46A, the self-cleavage is reported as 1.07. In the case of A11G G30C, the self-cleavage is reported as 0.04. Work on U32G C42U yielded a self-cleavage of 0.11. Work on A26C G33U yielded a self-cleavage of 0.08. G2C G44C showed a self-cleavage of 0.18. In the case of U38G C45U, the self-cleavage is reported as 0.05. For G1C G30U, the self-cleavage was 0.06. A16U C37A gave a self-cleavage of 0.11. Variant A25C G30U has a self-cleavage of 1.11. In the case of G5A U32G, the self-cleavage is reported as 0.04. Work on G1U C13G yielded a self-cleavage of 0.13. With G19A U32C the self-cleavage was 0.12. A6G G36C showed a self-cleavage of 0.09. G21A showed a self-cleavage of 2.19. Variant A24C G30A has a self-cleavage of 0.71. C13A C15A showed a self-cleavage of 0.08. G5C C45U gave a self-cleavage of 0.06. In the case of C15U G44U, the self-cleavage is reported as 0.09. In the case of A24U G27C, the self-cleavage is reported as 0.61. A14C A25U gave a self-cleavage of 0.09. Variant G1U G7A has a self-cleavage of 0.11. G17A C42A gave a self-cleavage of 0.07. For A6C U34C, the self-cleavage was 0.11. Work on U9G G36U yielded a self-cleavage of 0.12. C8U A14G showed a self-cleavage of 0.19. Variant G22U C31G has a self-cleavage of 0.22. In the case of A6C C23G, the self-cleavage is reported as 0.43. Work on A6U U20G yielded a self-cleavage of 0.55. In the case of C15U U34C, the self-cleavage is reported as 0.14. C23G G33U gave a self-cleavage of 0.16. Variant C18A A24G has a self-cleavage of 0.56. U38C A41C gave a self-cleavage of 0.04. In the case of G7U U43G, the self-cleavage is reported as 0.32. G27A A39G showed a self-cleavage of 0.08. Variant A6C U20A has a self-cleavage of 0.52. In the case of G33A A41C, the self-cleavage is reported as 0.07. C13U G29A showed a self-cleavage of 0.28. C10G C37U gave a self-cleavage of 0.01. In the case of A16C G27U, the self-cleavage is reported as 0.14. C18U A24U showed a self-cleavage of 0.97. Work on U9A A26C yielded a self-cleavage of 0.23. G29U C31G showed a self-cleavage of 0.13. Variant U34C G40U has a self-cleavage of 0.1. In the case of C8G G17C, the self-cleavage is reported as 0.04. In the case of A24U C42G, the self-cleavage is reported as 0.06. Work on A6U C10A yielded a self-cleavage of 0.07. A12C C46U showed a self-cleavage of 0.02. For C13G U34C, the self-cleavage was 0.1. Work on C8A C31G yielded a self-cleavage of 0.15. In the case of A4C G36A, the self-cleavage is reported as 0.73. Variant G7C G21U has a self-cleavage of 0.08. G1U U34A showed a self-cleavage of 0.05. For C15A G19A, the self-cleavage was 0.06. Work on G33C C37A yielded a self-cleavage of 0.03. Work on A25G G30C yielded a self-cleavage of 1.19. For G17C G19U, the self-cleavage was 0.24. C15U G40A gave a self-cleavage of 0.14. For U28G G35C, the self-cleavage was 0.07. Work on G5A G22C yielded a self-cleavage of 0.13. Variant G36A A41C has a self-cleavage of 0.05. C15U C31U showed a self-cleavage of 0.09. Work on A26G U43A yielded a self-cleavage of 0.07. With A14C G40C the self-cleavage was 0.04. For G17A C46G, the self-cleavage was 0.12. C13A A25U gave a self-cleavage of 0.11. For G7U C37U, the self-cleavage was 0.03. C13U A39C showed a self-cleavage of 0.13. Work on C13U G17A yielded a self-cleavage of 0.1. For C18U G21U, the self-cleavage was 2.05. U20C A39U gave a self-cleavage of 0.37. C3U A14C gave a self-cleavage of 0.08. Variant A26C has a self-cleavage of 0.9. In the case of G5C C46G, the self-cleavage is reported as 0.11. G1C G35C showed a self-cleavage of 0.02. For C10U G30C, the self-cleavage was 0.36. G7A U43C showed a self-cleavage of 0.25. In the case of G17C U43C, the self-cleavage is reported as 0.08. Variant U9A C18G has a self-cleavage of 0.09. Variant A26U U28G has a self-cleavage of 1.74. Work on C13G G33C yielded a self-cleavage of 0.04. For G5A G29C, the self-cleavage was 0.07. Work on G27C G36C yielded a self-cleavage of 0.09. Work on G35C G40A yielded a self-cleavage of 0.1. For C8U U34C, the self-cleavage was 0.18. Work on G5C U38A yielded a self-cleavage of 0.09. Work on G5C C8A yielded a self-cleavage of 0.18. Variant A14U G21A has a self-cleavage of 0.62. G2U G29U showed a self-cleavage of 0.11. Variant U9A A14G has a self-cleavage of 0.17. Work on C13A G21A yielded a self-cleavage of 0.23. In the case of G17U G44C, the self-cleavage is reported as 0.05. Variant C10A G19A has a self-cleavage of 0.07. With A4C A12U the self-cleavage was 0.17. In the case of U34A G44C, the self-cleavage is reported as 0.04. With G17C U32G the self-cleavage was 0.07. G30U C31A showed a self-cleavage of 0.19. Work on U20A U28C yielded a self-cleavage of 0.67. For G2A C46U, the self-cleavage was 0.87. G2C U9C showed a self-cleavage of 0.03. In the case of C3G G21A, the self-cleavage is reported as 1.1. A41C G44C showed a self-cleavage of 0.08. Work on G2A G7A yielded a self-cleavage of 0.86. Work on C8A U34A yielded a self-cleavage of 0.25. With G7U C45G the self-cleavage was 0.29. Variant C13U G30U has a self-cleavage of 0.15. Variant G7A C15A has a self-cleavage of 0.19. Work on U38G A39U yielded a self-cleavage of 0.13. Work on G27A U38A yielded a self-cleavage of 0.28. For G2U A12C, the self-cleavage was 0.02. G22A C46G showed a self-cleavage of 1.22. G29U G35A showed a self-cleavage of 0.32. Variant C37U U38C has a self-cleavage of 0.06. C10U C37U gave a self-cleavage of 0.02. With U20G G44U the self-cleavage was 0.23. In the case of G19C C31A, the self-cleavage is reported as 0.63. Variant U20C C37G has a self-cleavage of 0.23. In the case of A16C C18U, the self-cleavage is reported as 0.09. A4C C45G gave a self-cleavage of 0.17. With U9A C10U the self-cleavage was 0.08. With G5C G21A the self-cleavage was 0.1. For A25U G36A, the self-cleavage was 0.12. Variant C31A C45A has a self-cleavage of 0.05. C8A C15A gave a self-cleavage of 0.37. In the case of C13G C15G, the self-cleavage is reported as 0.09. With G1U A25U the self-cleavage was 0.45. Work on C31A G44U yielded a self-cleavage of 0.04. For U28G C42G, the self-cleavage was 0.03. For A12C G27A, the self-cleavage was 0.03. In the case of U43G C46G, the self-cleavage is reported as 0.32. C3A G40U gave a self-cleavage of 0.21. With A14U G17A the self-cleavage was 0.13. Variant U28A G40A has a self-cleavage of 0.1. A41G U43C showed a self-cleavage of 0.04. Work on G1U G2U yielded a self-cleavage of 0.13. In the case of A26C G29U, the self-cleavage is reported as 0.54. C31G G40U showed a self-cleavage of 0.03. Variant A4U C45A has a self-cleavage of 0.1. With A11U A24U the self-cleavage was 0.21. Variant A12U C42U has a self-cleavage of 0.13. With A4C G29C the self-cleavage was 0.24. Work on C37U A41G yielded a self-cleavage of 0.04. Work on G19C U20A yielded a self-cleavage of 0.3. Work on C18U G44C yielded a self-cleavage of 0.28. Variant A6C G33U has a self-cleavage of 0.09. Work on C37A C46A yielded a self-cleavage of 0.05. Work on C15A G33C yielded a self-cleavage of 0.06. U9G A14G gave a self-cleavage of 0.12.
